Target: Patched (Ptc) receptor on C3H10T1/2 cells (mouse (endogenous in C3H10T1/2)) (UniProt Q61115)
Sequence of UniProt Q61115 (Q61115 whole entry): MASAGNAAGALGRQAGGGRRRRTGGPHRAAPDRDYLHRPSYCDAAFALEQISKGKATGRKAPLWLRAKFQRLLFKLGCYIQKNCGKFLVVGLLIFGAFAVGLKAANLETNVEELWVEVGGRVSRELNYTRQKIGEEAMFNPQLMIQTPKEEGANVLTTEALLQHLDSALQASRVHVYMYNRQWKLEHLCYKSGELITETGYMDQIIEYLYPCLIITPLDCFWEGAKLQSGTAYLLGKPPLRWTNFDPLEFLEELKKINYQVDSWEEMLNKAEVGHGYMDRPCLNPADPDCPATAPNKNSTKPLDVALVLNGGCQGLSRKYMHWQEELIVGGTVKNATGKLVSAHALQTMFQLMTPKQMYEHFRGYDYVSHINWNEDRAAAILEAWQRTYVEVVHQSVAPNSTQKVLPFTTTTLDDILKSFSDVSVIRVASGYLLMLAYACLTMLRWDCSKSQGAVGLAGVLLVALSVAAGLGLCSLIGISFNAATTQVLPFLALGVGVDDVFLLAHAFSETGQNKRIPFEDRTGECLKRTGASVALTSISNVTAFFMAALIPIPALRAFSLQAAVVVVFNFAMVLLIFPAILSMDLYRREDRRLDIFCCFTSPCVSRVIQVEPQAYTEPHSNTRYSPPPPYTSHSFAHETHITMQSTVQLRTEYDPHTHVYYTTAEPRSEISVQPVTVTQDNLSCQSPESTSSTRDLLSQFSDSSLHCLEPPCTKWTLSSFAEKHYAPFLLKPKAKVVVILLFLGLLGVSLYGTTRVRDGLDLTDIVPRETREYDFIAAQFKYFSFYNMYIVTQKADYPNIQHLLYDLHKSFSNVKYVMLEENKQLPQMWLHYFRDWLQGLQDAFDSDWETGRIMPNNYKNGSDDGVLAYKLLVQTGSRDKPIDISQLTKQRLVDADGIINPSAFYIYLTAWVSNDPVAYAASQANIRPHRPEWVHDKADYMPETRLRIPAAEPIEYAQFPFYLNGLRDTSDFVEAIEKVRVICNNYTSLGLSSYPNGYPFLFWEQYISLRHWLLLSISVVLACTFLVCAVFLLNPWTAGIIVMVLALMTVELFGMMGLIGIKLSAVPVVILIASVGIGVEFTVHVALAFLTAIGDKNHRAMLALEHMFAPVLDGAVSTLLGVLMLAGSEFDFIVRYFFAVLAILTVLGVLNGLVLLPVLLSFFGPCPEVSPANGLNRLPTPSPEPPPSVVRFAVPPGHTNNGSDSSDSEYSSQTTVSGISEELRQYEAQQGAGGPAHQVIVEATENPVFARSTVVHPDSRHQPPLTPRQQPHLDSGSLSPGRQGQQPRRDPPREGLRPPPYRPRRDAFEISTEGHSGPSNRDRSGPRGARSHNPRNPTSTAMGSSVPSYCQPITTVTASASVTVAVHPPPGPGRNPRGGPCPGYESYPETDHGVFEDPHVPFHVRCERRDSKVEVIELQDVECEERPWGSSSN

## Sonic hedgehog (Shh), soluble form released from Shh-expressing Panc1 cells (ligand)
  Shh-induced C3H10T1/2 differentiation with 5 ug/mL HSI (0.7 sulfates/disaccharide), relative to no HS/heparin (100%): 70%
  Shh-induced C3H10T1/2 differentiation with 5 ug/mL HSII (1.2 sulfates/disaccharide), relative to no HS/heparin (100%): 58%
  Shh-induced C3H10T1/2 differentiation with 5 ug/mL HSIII (1.4 sulfates/disaccharide), relative to no HS/heparin (100%): 38%
  Shh-induced C3H10T1/2 differentiation with 5 ug/mL dp30 heparin, relative to no HS/heparin (100%): 26%
  Shh-induced C3H10T1/2 differentiation with 5 ug/mL heparin, relative to no HS/heparin (100%): 27%

Reference: publication PMC6526471
